Where “and” joins values, the source holds several entries; their conditions need not be identical. Equal values may be shown once.
How the values were obtained:
tHcy, cystathionine = experiment: Betaine, PEGC15S and combination treatment: transsulfuration metabolites; format: in vivo, HO mice
Description: (§1) Plasma metabolites homocysteine, cystathionine and cysteine were determined by stable-isotope-dilution liquid chromatography mass spectrometry as previously described in (Allen et al., 1993, Metabolism, 42: 1448-1460). Measurements of total non-protein bound homocysteine and other aminothiols as well as of amino acids in tissue were performed as described in (Maclean et al., 2010b. Mol. Genet. Metab. 101, 153-162). Metabolites were determined by stable-isotope-dilution liquid chromatography mass spectrometry.
The betaine and betaine+PEGC15S groups were treated with 2% betaine in the drinking water throughout the 18 days of the experiment, and the latter group was injected with 7.5 mg/kg PEGC15S on days 14 and 15. The PEGC15S single treatment group was maintained on regular water and injected on days 14 and 15 as well. […] The betaine single treatment group maintained these levels of tHcy to day 18. […] Thus, the combination of PEGC15S with betaine allows for maintaining lower tHcy levels for an extended period of time.

[1] = Pharmacokinetics of htCBS after a single dose (plasma CBS activity); format: in vivo, C57BL/6J mice; conditions: for observed peak plasma level: first 4 hours
Description: The pharmacokinetic properties of a pharmacologically active substance that is administered to circulation is greatly affected by natural mechanisms of ADME. Rapid clearance of the injected molecule may greatly impact treatment efficacy and thus longer circulating half-lives are desired, which may translate into less frequent administrations or smaller doses that in turn minimize the side effects. To determine the pharmacokinetics of htCBS in plasma circulation, a single dose of 5 mg/kg was injected via subcutaneous (SC), intravenous (IV) or intraperitoneal (IP) routes to C57BL/6J mice.

[2] = system: homocysteine, cystathionine and cysteine; experiment: Repeated administration of htCBS or PEGhtCBS: plasma and tissue metabolites; format: in vivo, HO mice; conditions: 5 mg/kg, 5 consecutive days on weeks 1 and 3
Description: as §1
This lack of metabolic modulation by non-PEGylated htCBS further confirms the necessity to modify htCBS by covalent attachment of polyethylene glycol molecules.
The long term effect of PEGhtCBS administration was monitored using HO mice. The PEGhtCBS enzyme was administered to 8 HO mice at a dose of 7.5 mg/kg, twice a week (Monday and Thursday) for the first two weeks, and then three times a week (Monday, Wednesday and Friday) for 6 weeks. Blood samples were collected 24 hours (Tuesday) and 72 hours (Monday) post injection (FIG. 4A-4C). […] Cystathionine and cysteine levels were positively influenced as well. […] In addition to analysis of plasma metabolites levels, liver, kidney and brain tissue samples from the injected mice were analyzed as well to determine the levels of non-protein bound homocysteine (free and disulfide-linked forms).

[3] = htCBS activity during in vitro incubation in mouse plasma at 37° C.; format: in vitro ADME, wild type or HO mice
Description: The rapid decline in htCBS activity in vivo may be attributed to a facilitated clearance from circulation and may also be attributed to the loss of enzymatic activity of htCBS once introduced to the environment in circulation. To test the latter, htCBS was incubated in vitro in mouse plasma of wild type or HO mice at 37° C. for up to 96 hours, with activity measured every 24 hours. […] A modest 25% loss of activity was recorded after 96 hours of incubation.

[4] = CBS enzyme activity assay, specific activity of pure enzyme; format: biochemical; conditions: PEGylated vs non-PEGylated htCBS
Description: CBS activity was determined by a radioisotope assay with C^14-labeled serine as a substrate. Ten μl (total 490 ng) of pure htCBS in dilution buffer (0.1 M Tris-HCl pH=8.6, 1 mM DTT, 10 μM PLP, 0.5 mg/ml BSA) or 10 μl of plasma were added to 85 μl of reaction mixture containing 0.1 M Tris-HCl pH=8.6, 10 mM L-serine, 0.5 mM PLP, 0.5 mg/ml BSA and 0.3 μCi (for pure enzyme) or 0.45 μCi (for plasma) of L-[C^14(U)]-Serine. Samples were incubated for 5 min at 37° C. and reaction was initiated by addition of 5 μl of 0.2 M Hcy (10 mM final concentration). Following 30 min of incubation at 37° C., a 20 μl aliquot of the assay mixture was applied onto a grade 3 CHR Whatman (NJ, USA) paper. Assay initiation and sampling of the resulting mixture were staggered so that each reaction time was 30 minutes. Descending paper chromatography was used to isolate the radioactive product (Cth) from a labeled substrate (Ser). The C^14-cystathionine formed in the reaction was separated from C^14-serine by an overnight descending paper chromatography in 2-propanol/formic acid/H2O (75:5.7:18.9 v/v). Radioactivity in the area of the marker cystathionine (detected by staining the marker lane with ninhydrin) was determined by cutting the chromatogram into strips that were submerged in 5 ml of Opti-fluor scintillation cocktail (PerkinElmer, MA, USA) and counted in a Beckman LS-3801 scintillation counter. An enzyme-free sample was used as a blank to monitor the background radioactivity that was then subtracted from each sample. For pure enzyme, specific activity values are expressed as enzyme units (the amount of enzyme that produces 1 μmol of cystathionine/hour) per mg of CBS, and for plasma samples as units per μl plasma.

Compound: C[N+](C)(C)CC(=O)O [betaine, N,N,N-trimethylglycine]
- decrease in tHcy (tHcy, cystathionine; 14 days of 2% betaine in drinking water): 29% and 32%
- cystathionine change (tHcy, cystathionine; throughout the 18 days): did not result in an increase

Compound: htCBS: truncated recombinant human CBS (SEQ ID NO: 3) where the C-terminal regulatory region has been removed
- AUC(0-t) (obs area) ([1]; 5 mg/kg IP): 932.4 mU-hr/μL
- Bioavailability ([1]; 5 mg/kg IP): 92%
- E Half-life ([1]; 5 mg/kg IP): 4.3 h
- MRT (area) ([1]; 5 mg/kg IP): 7.9 h
- cmax (obs) ([1]; 5 mg/kg IP): 75.9 Mu/μL
- observed peak plasma level ([1]; 5 mg/kg IP): ≤ 76 mU/μL
- AUC(0-t) (obs area) ([1]; 5 mg/kg IV): 1011 mU-hr/μL
- E Half-life ([1]; 5 mg/kg IV): 2.7 h
- MRT (area) ([1]; 5 mg/kg IV): 4.9 h
- observed peak plasma level ([1]; 5 mg/kg IV): up to 123 mU/μL
- AUC(0-t) (obs area) ([1]; 5 mg/kg SC): 500.9 mU-hr/μL
- Bioavailability ([1]; 5 mg/kg SC): 50%
- E Half-life ([1]; 5 mg/kg SC): 6.1 h
- MRT (area) ([1]; 5 mg/kg SC): 9.5 h
- cmax (obs) ([1]; 5 mg/kg SC): 34.5 Mu/μL
- serum homocysteine levels [2]: no change
- loss of activity in mouse plasma ([3]; after 96 hours): 25%
- loss of activity in mouse plasma ([3]; up to 72 hours): no significant loss of activity
- Specific Activity [4]: 1193

From patent publication US12194082B2, “Compositions and methods for treatment of homocystinuria” (THE REGENTS OF THE UNIVERSITY OF COLORADO, priority 2016, dated 2025)
